The nanobody polyreactivity screen of Harvey et al. (2022)

Assay: yeast display, Sf9 membrane polyspecificity reagent, FACS + sequencing; frameworks hold sequencing errors
Procedure, shortened: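 In a synthetic yeast display library (Saccharomyces cerevisiae BJ5465), nanobody expression was induced with galactose for 36–48 hours. FACS gates were set low and high (top ~1%) using anti-HA fluorescence for expression and streptavidin fluorescence for binding of the Sf9 membrane reagent. Each polyreactivity label is drawn from the gate of origin.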

Question: With “QVQLVESGGGLVHAGGSLRLSCAASGSIFLLYAMGWYRQAPGKERELVAAITSSGGSTNYADSVKGRFTISRDNAKNTVYLQMNSLKPEDTAVYYCATAPYAYTILGSRFDYWGQGTQVTVSS” as the sequence, how does the “polyreactivity (PSR sort gate)” value read?
Answer: low polyreactivity

Question: For “QVQLVESGGGLVQAGGSLRLTCAASGRIFPYYAMGWYRQAPGKEREFVAAITSSGSRTYYADSVKGRFTISRDNAKNNVYLQMNSLKPEDTAVYYCAVAYRLLYYYWGQGTQVTVSS”, which “polyreactivity (PSR sort gate)” value is on record?
Answer: high polyreactivity

Question: For “QVQLVESGGGLVQAGGSLRLSCAASGFIFVIYGMGWYRQAPGKERELVAAISRGGSTYADSVKGRFTISRDNAKNTVYLQMNSLKPEDTAVYYCNARLYKRGGFGYYYWGQGTQVTVSS”, which “polyreactivity (PSR sort gate)” value is on record?
Answer: high polyreactivity

Question: Which “polyreactivity (PSR sort gate)” value does the source give for “QVQLVESGGGLVQAGGSLRLSCAASGFTCSRYAMGWYRQAPGKERELVAAISSGGSTNYADSVKGRFTISRDNAKNTVYLQMNSLKPEDTAVYYCAVTWRYKGYYWGQGTQVTVSS” here?
Answer: high polyreactivity

Question: For “QVQLVESGGGLVQAGGSLRLSCAASGFTFSFYAMGWYRQAPGKERELVAAIDRSGGSTYYADSVKGRFTISRDNAKNTVYLQMNSLKPEDTAVYYCAATVFYGYYYWGQGTQVTVSS”, which “polyreactivity (PSR sort gate)” value is on record?
Answer: high polyreactivity

Question: With “QVQQVESWGGLLQAGGSLRLSCAASGSIFTLYAMGWYREAPGKERELVADITWSGGSTYYADSVKGRFTISRDNAKNTVYLEMNSLKPEDTAVYYCAIDYLAGGPWEGHVEREYDYWGQGTQVTVSS” as the sequence, how does the “polyreactivity (PSR sort gate)” value read?
Answer: low polyreactivity

Question: For “QVQLVESGGGLVQAGGSLRLSCAASGSILNDYAMGWYRQAPGKERELVAGISRGGGTYYADSVKGRFTISRDNAKNTVYLQMNSLKPEDTAVYYCAKRIYWYHYRYDYWGQGTQVTVSS”, which “polyreactivity (PSR sort gate)” value is on record?
Answer: high polyreactivity

Question: Which “polyreactivity (PSR sort gate)” value does the source give for “QVQLVESGGGLVQAGGSLRLSCAASGYTFRSYAMGWYRQAPGKERELVAGIDGSGGTTYYADSVKGRFTISRDNAKNTVYLQMNSLKPEDTAVYYCAAEAYKHGVWDYDYWGQGTQATVSS” here?
Answer: low polyreactivity

Question: Which “polyreactivity (PSR sort gate)” value does the source give for “QVQLVESGGGLVQAGGSLRLSCAASGSIFRYYDMGWYRQAPGKERELVAAISDSTGTTYYADSVKGRFSISRDNAKNTVYLQMNSLKPEDTSVDYCTAGYDPRYDYWGQGTQVTVSS” here?
Answer: high polyreactivity

Question: With “QVQLVESGGGLVHAGGSLRLSCAASGRTFASYAIGWYRQAPGKERELVARISKSGGSTYYADSVKGRFTISRDNAKNTVYLQMNSLKPEDTAVYYCAATRYPYLYRSEVGSDYWGQGTQVTVSS” as the sequence, how does the “polyreactivity (PSR sort gate)” value read?
Answer: low polyreactivity

Question: For “QVQLVESGGGLVQAGGSLRLSCAASGIIFPEYDRGWYRQAPGKERELVAAITKSDGRTYYADSVKGRFTISRDNAKNTVYLQMNSLKPEDTAVYYCNADPRVVAYLGFDSWGQGTQVTVSS”, which “polyreactivity (PSR sort gate)” value is on record?
Answer: low polyreactivity

Question: For “QDQLVESGGGLVQAGGSLRLSCAASGRTFSTYAMGWYRQAHGKERELVARITSSGGSTYFADSVKGRFTISRDNAKNTVYLQMNSLKPEDTAVYYCAADAWSYWGYPYWWGYDYWGQGTQVTVSS”, which “polyreactivity (PSR sort gate)” value is on record?
Answer: high polyreactivity

Question: For “QVQLVESGGGLVQAGGSLRLSCAASGITFRAYVMGWYRQEPGKERELVAAINRRGGSTYYADSVKGRFTISRDNAKNTVYLQMNSLKPEDTAVYYCAAGLYSTGYTYDYWGQGTQVTVSS”, which “polyreactivity (PSR sort gate)” value is on record?
Answer: high polyreactivity

Question: With “QVQLVESGGGLVQAGASLRLSCAASGGTFLIYGRGWYRQAPGKERELVAAISRSGGSTYYADSVKGRFTISRDNAKNTVYLQMNSLKPEDTAVYYCAADSGYLSPYDYWGQGTQVTVSS” as the sequence, how does the “polyreactivity (PSR sort gate)” value read?
Answer: low polyreactivity

Question: With “QVQLVESGGGLVQAGGRLRLSCAASGRTFTPNAMGWYRQAPGKERELVAAIDWRGGRTYYADSVKGRFTISRDNAKNTVYLQMNSLKPEDTAVYYCAARVDGYHYKSAGYSYGVYYWGQGTQVTVSS” as the sequence, how does the “polyreactivity (PSR sort gate)” value read?
Answer: low polyreactivity

Question: For “QVQLVESGGGLVQAGGSLRLSCAASGIIFLENAMGWYRQAPGKERELVAGISSGGNTNYADSVKGRFTISRDNAKNTVYLQMNSLKPEDTAVYYCNTDWYLPRYVLLGYFSGTEDYWGQGTQVTVSS”, which “polyreactivity (PSR sort gate)” value is on record?
Answer: low polyreactivity

Question: For “KVQLVESGGVLVQEGGRLRLSCAASGRTFQLNAMGWYRQAPGKEMELVAAISTRGGSTYYADSVKGRFTISRDNAKNSVYLQMNSLKPEDTAGYYCAKDPSFTRGYKEGGGYDYWGQGTQVTVSS”, which “polyreactivity (PSR sort gate)” value is on record?
Answer: high polyreactivity

Question: For “QVQHVESGGGLVQAGGSLRLSCAASGRTFRANTMGWYRQAPGKERELVASIRGNGGTTYYADSVKGRFTISRDNAKNTVYLQMNSLKPEDTAVYYCAAGLYYIRWSRRYEYWGQGTQVTVSS”, which “polyreactivity (PSR sort gate)” value is on record?
Answer: high polyreactivity

Question: Which “polyreactivity (PSR sort gate)” value does the source give for “QVQLVESGGGLVQAGGSLRLSCAASGSTLRRNAMGWYRQAPGTERELVAAITGSRGSTFYADSVKGRFTISRDNAKNTVYLQMNSLKPEDTAVYYCAVYKWSTRVSQYRYDYWGQGTQVTVSS” here?
Answer: high polyreactivity

Question: Which “polyreactivity (PSR sort gate)” value does the source give for “QVQLVESGGGLVQAGGTLRLSCAASGRTFTYYAMGWYRQAPGKERELVATIRSGGTTNYADSVKGRFTISRDNAKNTVYLQMNSLKPEDTAEYYCARVLSYVWYYRDPYQYPDYDFWGQGTQVTGSS” here?
Answer: low polyreactivity

Question: With “QVQLVESGGGLVQAGGSLRLSCAASGFTFGYYTMGWYRQAPGKERELVAAISSGGSTNYADSVKGRFTISRDNAKNTVYLQMNSLKPEDTAVYYCTATQIGPYYLPFDSWGQGTQVTVSS” as the sequence, how does the “polyreactivity (PSR sort gate)” value read?
Answer: high polyreactivity

Question: For “QVQLVESGGGLVQAGGSLRLSCAASGRTLWVYAMGWYRQAPGKERELVAAITSSGVSTDYADSVKGRFTISRDNAKNTVYLQINSLKPEDTAVYYCAKRYWSRYAQYDYWGQGTQVTVSS”, which “polyreactivity (PSR sort gate)” value is on record?
Answer: low polyreactivity

Question: For “QVQLVESGGGLVQAGGSLRLICAASGSTFIWNSMGWYRQAPGKERELGATITGSGDRTTYADSVKGRFTISRDNAKNTVYLQMNSLKPEDTAVYYCAGDAYRWWVRYDYWGQGTQVTVSS”, which “polyreactivity (PSR sort gate)” value is on record?
Answer: low polyreactivity

Question: Which “polyreactivity (PSR sort gate)” value does the source give for “QVQLVESGGGLVQAGGSLRLSCAASGSIFWSYAMGWYIQAPGTERELVAAITTDGGTNYADSVKGRFTISLDNAKNTVYLLMKSLKPDDTAVYYCAGDTDPNPQIDYTLTMDYWGQGTEVTVSS” here?
Answer: low polyreactivity

Question: With “QVQLVETGGGLVQAGGSLRLSCAASGSIFDWYAMGWYRQAPGKEGELVAAISSGDSTYYADSVKGRFTISRDNAKNTVYLKMNSLKPEDTAVYYCAAVTKLSGIRYNYWGQGTQVTVSS” as the sequence, how does the “polyreactivity (PSR sort gate)” value read?
Answer: low polyreactivity

Question: With “QVQLVVSGGGLVQAGGSLRLSGAASGSIFWVYAMGWSRQAPGKELELVAAINWRGGSTYYADSVKGRFTISRDNAKNTVYLQKNSLKPEDTAVYNCAVQPNYYGMGYWGQGTQVTVSS” as the sequence, how does the “polyreactivity (PSR sort gate)” value read?
Answer: high polyreactivity

Question: For “QVQLVESGGGLVQAGGSLRLSCAASGFIFSYYTMGWYRQAPGKESELVAAISYSGGSTDYADSVKWRFTISRDNAKNTVYLQMNSLKPEDTAVYYCNADYSFWAEPYWEYGYDYWGQGTQVTVSS”, which “polyreactivity (PSR sort gate)” value is on record?
Answer: low polyreactivity

Question: Which “polyreactivity (PSR sort gate)” value does the source give for “QVQLVESGGGLVQAGGSLRLSCAASGSTFSYNAMGWYRQAPGKEREFVAAITTSGVRTYYADSVKGRFTISRDNAKNTVYLQMNSLKPEDTAVYYCAARANYIFYGMDYWGQGTQVSVSS” here?
Answer: high polyreactivity

Question: With “QVQLVETGGGLVQAGGSLRLSCAASGLTSLGNAMGGYRQAPGKERELVAAITRTVTSTYYADSVKGRFTISRDTAKNTVYLQMNSLKPEDTAVYYCAADWWYGYSNYDYWGQGTEVTVSS” as the sequence, how does the “polyreactivity (PSR sort gate)” value read?
Answer: low polyreactivity

Question: For “QVQLVESGGGLVQAGGSLRLSCAASGRTFGYYDMGWYRQAPGKGRELVAAITYSGGNTYYADSVKGRFTISRDNAKITVYLQMNSLKPEDTAVYSCAARSSFFPSYSRYDYWGQGTQVTVSS”, which “polyreactivity (PSR sort gate)” value is on record?
Answer: high polyreactivity

Question: With “QVQLVESGGGLVQAGGSLRLSCAASGSTFDPYAMGWYRQAPGKERELVAAITGGGSTNYADSVKGRFTISRDNAKNTVYLQMNSLKPEDTAVYYCAATIPKPYHSGLRLLGQGTQVTVSS” as the sequence, how does the “polyreactivity (PSR sort gate)” value read?
Answer: low polyreactivity

Question: For “QVQLVESGGGLVQAGGSLRLSCAASGITFVYYAMGWYRQAPGKERELVASISSADNTHYADSVKGRFTISRDNAKNTVYLQMNSQKPEDTAVYYCAADYWWNLRHYSTGGYWGQGTQVTVSS”, which “polyreactivity (PSR sort gate)” value is on record?
Answer: low polyreactivity

Question: With “QVQLVESGGGLVQAGGSLRLSCAASGRTFRLNAMGWYRQAPGKERELVAGIRVRAGTTYYADSVKGRFTLSRDNAKNTVYLQMNSLKPEDTAVYYCAAESYSRSRKYDYWGQGTQVTVSS” as the sequence, how does the “polyreactivity (PSR sort gate)” value read?
Answer: high polyreactivity

Question: Which “polyreactivity (PSR sort gate)” value does the source give for “QVQLVESGGGLVQAGGSLRLSCAASGIIFYYYAMGSDRQAPGKERELVAAITSSGVRTYYADSVKGRFTISRDNAKNTVYLQMNSLKPEDTAVYYCAASSVLYSRSYDYWGQGTQVTVSS” here?
Answer: high polyreactivity

Question: With “QVQLVESGGGLVQAGGSLRLSCASSGSIFVTYTMGWYRQAPGKERELVATISGGSSTYADSVKGRFTISRDNAKNTVYLQMNSLKPEDTAVYYCNAVWYFKPPPLYYIPYRQYDYWGQGTQVTVSS” as the sequence, how does the “polyreactivity (PSR sort gate)” value read?
Answer: low polyreactivity

Question: Which “polyreactivity (PSR sort gate)” value does the source give for “QVQLVESGGGLFQAGGSLRLSCAASGSTFAVYAMGWYRQAPGKERELVAVISWSDGRTYYADSVKGRFTISRDNAKNTVYLQMNSLKPEDTAVYYCNARLDTFVPRYGYWGHGTQVTVSS” here?
Answer: high polyreactivity

Question: For “QVQLVESGGGLVQAGGSLRLSCAASGRTFYGNAMGWYRQAPGKERELVAAITSGGGSTRYADSVKGRFTISRDNANNTVYLQMNSLKPEHTAVYYCAAYRQGTAYDYWGQGTQVTVSS”, which “polyreactivity (PSR sort gate)” value is on record?
Answer: high polyreactivity

Question: For “QVQLVESGGGLVQAGGSLRLSSAASGRIFRKYAMGWYRQAPGKERELVAAISGSGVSTYYADSVKGRFTISRDNAKNTVYLQMNSLKPEDTAVYYCNARIILRGYKSYRYDYWGQGTQVTVSS”, which “polyreactivity (PSR sort gate)” value is on record?
Answer: high polyreactivity

Question: For “QVQLVESGGGLVQAGGSLRLSCAASGRTFTIYAMGWYRQAPGKEREFVASITGSDGSTYYADSVKGRFTISRDNAKNTVYLQMNSLKPEDTAVYYCAAATSSAYDYWGQGTQVTVSS”, which “polyreactivity (PSR sort gate)” value is on record?
Answer: low polyreactivity

Question: With “QVQLVESGGGLVQAGGSLRLSCAASGIIFQYNAMGWYRQAPGKEREFVAAISYGGTSTYYADSVKGRFTISRDNAKNTVYLQMNSLKPEDTAVYYCAADYQGYTPSDGRYYWGQGTQVTVSS” as the sequence, how does the “polyreactivity (PSR sort gate)” value read?
Answer: low polyreactivity

Question: With “QVQLVESGGGLVQAGGSLRLSCAASGFTASYAMGWYRQAPWKERELVATINSGGGSTRYADSVKGRFTISRDNAKNTVYLQMNSLKPEDTAVYYCAKRWRRNFDYWGQGTQVTVSS” as the sequence, how does the “polyreactivity (PSR sort gate)” value read?
Answer: high polyreactivity

Question: With “QVQLVQSGGGLVQAGGSLRLSCAASGFTFRFYAMGWYRQATGKERELVASINWSGGRTYYADSVKGRFTISRDNAKNTVYLEMNSLKPVDTAVYYCATQYLIQTKYYSWGQGTQVTVSS” as the sequence, how does the “polyreactivity (PSR sort gate)” value read?
Answer: high polyreactivity

Question: With “QVQLVESGGGLVQAGGSLRLSCAASGSIFGRYAMGWYRQAPGKERELVAAITFTGGSTYYADSVKGRFTISRDNAKNTVYLQMNSLKPEDTAVYYCAARSLFYRGYGYWGQGTQVTVSS” as the sequence, how does the “polyreactivity (PSR sort gate)” value read?
Answer: high polyreactivity
